# B1: Orai1 1-70, expressed in HEK 293T cells (other)
# chain: MHPEPAPPPSRSSPELPPSGGSTTSGSRRSRRRSGDGEPPGAPPPPPSAVTYPDWIGQSYSEVMSLNEHS
# notes: not shown: The detection tag of the HEK construct (probably N-terminal YFP)
# Target: T1, Flag-myc-CAD (Homo sapiens (Human), UniProt Q13586 342-448)
# T1 construct: also called Flag-tagged CAD; not shown: Flag and myc tags from the custom vector pDEST-pGWI-Flag-Myc-x
# Assay: co-immunoprecipitation from HEK 293T cells
# Procedure: Immunoprecipitation and Immunoblot Analysis. […] Lysates were spun at 12,000 rpm for 10 min, and the supernatant was incubated with anti-Flag M2 agarose beads (Sigma), or anti-myc or -HA antibody followed by IgG agarose beads (Pierce). Lysates and immunoprecipitates were subjected to SDS-PAGE, probed with HRP-conjugated secondary antibody and detected by enhanced chemiluminescence (Pierce).
# STIM1-CAD BINDS TO THE N- AND C-TERMINI OF ORAI1. To identify regions of Orai1 important for activation by CAD, we characterized the binding of CAD to Orai1 using two approaches. First we expressed fusions of NubG with the N-terminus, the II-III cytoplasmic loop and the C-terminus of Orai1 in yeast together with different CAD-Cub-LV constructs. […] Based on the level of b-gal activity, CAD appears to interact with the Orai1 C-terminus with a higher affinity than with the N-terminus.
# T1 sequence (Q13586 342-448): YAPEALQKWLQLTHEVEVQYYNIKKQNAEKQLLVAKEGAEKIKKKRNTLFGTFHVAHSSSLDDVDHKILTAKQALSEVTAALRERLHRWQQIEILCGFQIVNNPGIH
binder,measurement,value
B1,binding result,no binding

# Source: patent US20120165265A1 (published 2012)
